Results: the Immune Epitope Database (IEDB)

The sequences below were run against HLA-A*02:01 (assay: IEDB peptide-MHC binding, purified MHC/competitive/radioactivity; ≥ and ≤ were set here for values at or beyond the usual limits of such assays). Settings: source organism: Vaccinia virus WR.

| Sequence | IC50 [nM] |
| --- | --- |
| KMAGGIGLSI | 9.7 |
| CISQHQHLA | 449 |
| KANCTAESST | 2760 |
| NVFETRIVM | 2640 |
| RLFSYNFTT | 0.23 |
| DVVILLLSSV | 907 |
| DMMSLNLTIV | 2850 |
| FVIVIYIFT | 3470 |
| NMNYSDDYMM | 2640 |
| KVTRFYFNM | 95 |
| SVVIYDFLV | 1.1 |
| FLLLTSIPI | 0.11 |
| KLYTIVSTL | 15 |
| KMCTVSDYI | 36 |
| ELMYIFAAL | 108 |
| YIIDWMVDI | 0.92 |
| RLLDLFGPEV | 0.98 |
| LLLETKTILV | 3.3 |
| KLTDKKTFII | 4390 |
| LVDAIDNIV | 37 |
| SLLVIWILIV | 1020 |
| GAENIVFNL | 4720 |
| KLLKMVTSV | 1.2 |
| VLLDYGLHGL | 1.3 |
| ALLSRFFNM | 0.61 |
| IMFTCMDPL | 2.1 |

| Sequence | IC50 [nM] |
| --- | --- |
| YLPLSVFII | 6.2 |
| KLYLVDYGL | 13 |
| VLGKVTINNL | 1770 |
| ILGMLFSDRV | 17 |
| NVDSTDELM | 1940 |
| SMLIEVILTA | 795 |
| FLRYLLFGI | 2.5 |
| KLLISKGIEI | 132 |
| KIFETIYYGA | 604 |
| YTYFSNTILL | 189 |
| KIFIDNIYIV | 522 |
| YLCTFMIIT | 87 |
| NIVWEKKSLV | 63 |
| HQWDIDSAI | 1010 |
| SMITMSAFLI | 59 |
| FTYYPTNKL | 1730 |
| EIIPSSIPV | 4650 |
| KLFFAKCLVV | 2.3 |
| LLPGFVLTCI | 3.7 |
| TLFLILCYFI | 21 |
| AIIGLCAYA | 81 |
| RISGSNIVI | 3670 |
| LISGSTFSI | 496 |
| LLSQYLSRV | 1 |
| FLFYPSMFTL | 0.23 |
| YMDLSYHGV | 1.1 |

| Sequence | IC50 [nM] |
| --- | --- |
| NLATSIYTI | 1.2 |
| YVSTGESSIL | 1360 |
| TLLCVLPAV | 1 |
| LIQEIVHEV | 33 |
| YAYGWIPET | 43 |
| SMVISLLSMI | 79 |
| HLEWLLGFI | 173 |
| FLLIRYITT | 46 |
| LMEVFPQLDL | 244 |
| TVIHLEWLL | 5.6 |
| ILLTLRMTQL | 366 |
| YMFFVIKNL | 21 |
| FIKGFLYHT | 1320 |
| QAKTKNFTI | 3800 |
| AVNEEWLTAV | 390 |
| FLAVLSPTI | 0.66 |
| FIFTGITLFL | 0.92 |
| FMIITSTKTI | 1480 |
| SIDQKKSYV | 188 |
| ILGILYLYET | 73 |
| YQLAGYILT | 16 |
| NIHSEMYSL | 580 |
| VIFLISVIVL | 1540 |
| LMMTLPSIFL | 0.2 |
| FMLPKQDIV | 4.9 |
| MISRHCCIL | 1030 |

| Sequence | IC50 [nM] |
| --- | --- |
| QLLEAVYGNI | 199 |
| PVLMFLLFYV | 69 |
| YLYETYHLI | 2.4 |
| HIFMASPENV | 97 |
| VLLTYFCFV | 0.28 |
| GIAHLLEHL | 3560 |
| VMKLFTISV | 8 |
| SIINRDIIVI | 826 |
| SIFGFQAEV | 0.54 |
| LLLWPLYVL | 0.21 |
| GLSGDSERV | 626 |
| NLFDIPLLTV | 0.33 |
| YLSAKITTL | 5.5 |
| FILHRLHEI | 0.65 |
| RTLLPILLL | 307 |
| ITLYDFDYYI | 29 |
| FACLMFKHLL | 1140 |
| FMASPENVI | 13 |
| QLVWENFLA | 22 |
| YLDGQLARL | 1.3 |
| IVFNLPVSKV | 53 |
| FMMVLPGAA | 6.7 |
| KLITFLFVI | 15 |
| YLLFGIKCI | 27 |
| TVMNNLSEL | 533 |
| LLISMYCSKT | 1150 |

| Sequence | IC50 [nM] |
| --- | --- |
| FIYLLFASM | 173 |
| ALMAITKNV | 8.4 |
| KMIPLLFIL | 2.9 |
| LLNPCLINV | 3.4 |
| HLPTMYDGL | 1090 |
| YVLLHLLVV | 101 |
| YVLFTVMTYV | 1 |
| GVIEYAKSI | 4180 |
| VILFIMFMLI | 384 |
| FIHGGILYA | 8.8 |
| RVYEALYYV | 1.5 |
| FTFSNVCESV | 2.4 |
| SLLVAPMPT | 935 |
| WLLGFIKCI | 25 |
| KLTFLDVEV | 93 |
| AASSTHRKV | 2640 |
| YLYQPCDLL | 1.8 |
| QIFEVYWYL | 11 |
| FIKQGFNNLV | 119 |
| YLLSGSDLFI | 0.25 |
| YMDLSYHGVT | 85 |
| SLHSLSVETI | 95 |
| RVQSFKINI | 769 |
| KQDRSDGYFL | 3910 |
| VLAIDFGNGA | 1440 |
| TIGNQLYLTV | 18 |
